Blank lines part the entries; values can stand above or below the binder they belong to.
Columns and labels:
[1] = target: T1, recombinant human PAPPA (pregnancy associated plasma protein-A) (human, UniProt Q13219 82-1627); assay: cell-based or functional assay
[2] = target: T1, recombinant human PAPPA (pregnancy …); assay: cell-based or functional assay; remark: listed apart in the source
[3] = target: T2, recombinant cynomolgus monkey PAPPA (cynomolgus monkey, UniProt A0A2K5WE98 87-1619); assay: cell-based or functional assay
[4] = target: T1, recombinant human PAPPA (pregnancy …); assay: cell-based or functional assay; remark: listed apart in the source
[5] = target: T3, endogenous human PAPPA natively secreted by human cells (A549; 9-7) (human, UniProt Q13219 82-1627); assay: cell-based or functional assay
[6] = target: T2, recombinant cynomolgus monkey PAPPA; assay: SPR, Biacore 8K+, mAb captured on PrismA chip, PAPPA as analyte, 37 C, mean of n=3
Description: (§1) Binding of TPP12744 to recombinant human, cynomolgus monkey and rabbit PAPPA was assessed using capture kinetics method on BIACORE 8K+ (Cytiva) SPR instrument. The antibodies, including controls, were captured on PrismA biosensor surface (Cytiva) at injection rate of 10 μl/min. Analytes were injected at injection rate of 30 μl/min over the captured antibodies as a concentration series including eight 2× serial dilutions with the highest concentration of 32 nM. Association phase was 160 seconds, followed by a dissociation phase of 600 seconds. Buffer only (OnM analyte) injection was used to double reference the binding curves. Regeneration of the chip surface between cycles was carried out using 10 mM Glycine pH 1.5. The assay was run at 37° C. in HBS-EP+ buffer with 0.1% BSA to minimize the nonspecific binding of the analytes to the chip surface. TPP12744 was analyzed as three independently prepared replicates.
(§2) The final screening process was conducted using the following criteria. Firstly, antibodies were checked for affinity to human PAPPA (method #4). Only antibodies with low nanomolar affinity for human PAPPA were retained. For one antibody (TPP12744) binding to PAPPA was assessed at 37° C. using the methodology described in Example 1, method #6.

[7] = target: human PAPPA (Common variant) (human); assay: as above
Description: as §1, §2

[8] = target: T1, recombinant human PAPPA (pregnancy …); assay: as above
Description: as §1, §2

recombinant mouse PAPPA [9] = target: T4, recombinant mouse PAPPA (mouse, UniProt Q8R4K8 82-1624, limits assumed); assay: SPR (Biacore 8K+, captured mAb, 37 C); data not shown
T4 construct: also called murine PAPPA; rec; Mouse PAPP-A

rat PAPPA = rat PAPPA (rat, UniProt A0ABK0LMY4 80-1624); assay: as above
[10] = target: T1, recombinant human PAPPA (pregnancy …); assay: cell-based or functional assay; remark: listed apart in the source
[11] = target: T3, endogenous human PAPPA natively …; assay: cell-based or functional assay; remark: listed apart in the source
[12] = target: T3, endogenous human PAPPA natively …; assay: cell-based or functional assay; remark: listed apart in the source
recombinant mouse PAPPA [13] = target: T4, recombinant mouse PAPPA; assay: cell-based or functional assay

T1 sequence (Q13219 82-1627 limits assumed): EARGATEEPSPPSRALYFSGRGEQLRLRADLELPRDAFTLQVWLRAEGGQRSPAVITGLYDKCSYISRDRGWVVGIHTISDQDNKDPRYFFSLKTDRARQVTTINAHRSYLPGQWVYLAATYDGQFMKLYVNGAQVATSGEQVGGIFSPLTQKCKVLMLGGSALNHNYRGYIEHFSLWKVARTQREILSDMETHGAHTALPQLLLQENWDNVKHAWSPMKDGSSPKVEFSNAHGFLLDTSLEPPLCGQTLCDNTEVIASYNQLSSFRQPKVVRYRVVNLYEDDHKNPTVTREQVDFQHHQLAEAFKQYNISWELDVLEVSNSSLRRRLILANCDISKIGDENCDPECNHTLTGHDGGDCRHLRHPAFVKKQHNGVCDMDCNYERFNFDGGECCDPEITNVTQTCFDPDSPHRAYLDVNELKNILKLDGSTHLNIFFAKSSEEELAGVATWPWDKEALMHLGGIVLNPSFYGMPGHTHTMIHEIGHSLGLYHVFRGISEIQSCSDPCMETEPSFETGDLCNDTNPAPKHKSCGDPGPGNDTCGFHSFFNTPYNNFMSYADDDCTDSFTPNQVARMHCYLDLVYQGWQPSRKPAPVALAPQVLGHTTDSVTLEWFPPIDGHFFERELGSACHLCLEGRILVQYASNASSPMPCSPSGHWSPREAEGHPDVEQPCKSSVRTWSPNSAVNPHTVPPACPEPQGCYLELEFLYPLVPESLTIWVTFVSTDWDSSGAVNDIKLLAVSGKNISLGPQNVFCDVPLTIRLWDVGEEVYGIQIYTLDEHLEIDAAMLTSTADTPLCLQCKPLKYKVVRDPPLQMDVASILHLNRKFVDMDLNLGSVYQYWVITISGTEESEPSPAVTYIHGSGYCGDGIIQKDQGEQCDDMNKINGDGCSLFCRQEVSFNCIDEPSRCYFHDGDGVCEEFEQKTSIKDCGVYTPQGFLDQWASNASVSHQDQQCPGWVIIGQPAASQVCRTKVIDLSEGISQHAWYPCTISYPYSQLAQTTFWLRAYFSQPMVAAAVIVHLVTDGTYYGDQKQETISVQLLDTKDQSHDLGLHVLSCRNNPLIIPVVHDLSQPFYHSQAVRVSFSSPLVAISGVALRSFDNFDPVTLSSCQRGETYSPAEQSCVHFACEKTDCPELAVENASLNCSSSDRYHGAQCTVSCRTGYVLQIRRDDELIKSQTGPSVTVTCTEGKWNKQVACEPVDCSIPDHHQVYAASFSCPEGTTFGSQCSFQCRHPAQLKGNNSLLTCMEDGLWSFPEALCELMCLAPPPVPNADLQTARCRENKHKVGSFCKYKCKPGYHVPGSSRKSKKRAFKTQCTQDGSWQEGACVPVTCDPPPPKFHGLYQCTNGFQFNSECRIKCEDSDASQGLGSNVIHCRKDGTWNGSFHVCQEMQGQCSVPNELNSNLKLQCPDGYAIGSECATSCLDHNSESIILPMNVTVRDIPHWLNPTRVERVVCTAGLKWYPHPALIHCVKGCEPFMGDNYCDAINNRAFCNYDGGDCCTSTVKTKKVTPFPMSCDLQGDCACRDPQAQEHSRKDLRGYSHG
T3 sequence (Q13219 82-1627 limits assumed): as above
T4 sequence (Q8R4K8 82-1624 limits assumed): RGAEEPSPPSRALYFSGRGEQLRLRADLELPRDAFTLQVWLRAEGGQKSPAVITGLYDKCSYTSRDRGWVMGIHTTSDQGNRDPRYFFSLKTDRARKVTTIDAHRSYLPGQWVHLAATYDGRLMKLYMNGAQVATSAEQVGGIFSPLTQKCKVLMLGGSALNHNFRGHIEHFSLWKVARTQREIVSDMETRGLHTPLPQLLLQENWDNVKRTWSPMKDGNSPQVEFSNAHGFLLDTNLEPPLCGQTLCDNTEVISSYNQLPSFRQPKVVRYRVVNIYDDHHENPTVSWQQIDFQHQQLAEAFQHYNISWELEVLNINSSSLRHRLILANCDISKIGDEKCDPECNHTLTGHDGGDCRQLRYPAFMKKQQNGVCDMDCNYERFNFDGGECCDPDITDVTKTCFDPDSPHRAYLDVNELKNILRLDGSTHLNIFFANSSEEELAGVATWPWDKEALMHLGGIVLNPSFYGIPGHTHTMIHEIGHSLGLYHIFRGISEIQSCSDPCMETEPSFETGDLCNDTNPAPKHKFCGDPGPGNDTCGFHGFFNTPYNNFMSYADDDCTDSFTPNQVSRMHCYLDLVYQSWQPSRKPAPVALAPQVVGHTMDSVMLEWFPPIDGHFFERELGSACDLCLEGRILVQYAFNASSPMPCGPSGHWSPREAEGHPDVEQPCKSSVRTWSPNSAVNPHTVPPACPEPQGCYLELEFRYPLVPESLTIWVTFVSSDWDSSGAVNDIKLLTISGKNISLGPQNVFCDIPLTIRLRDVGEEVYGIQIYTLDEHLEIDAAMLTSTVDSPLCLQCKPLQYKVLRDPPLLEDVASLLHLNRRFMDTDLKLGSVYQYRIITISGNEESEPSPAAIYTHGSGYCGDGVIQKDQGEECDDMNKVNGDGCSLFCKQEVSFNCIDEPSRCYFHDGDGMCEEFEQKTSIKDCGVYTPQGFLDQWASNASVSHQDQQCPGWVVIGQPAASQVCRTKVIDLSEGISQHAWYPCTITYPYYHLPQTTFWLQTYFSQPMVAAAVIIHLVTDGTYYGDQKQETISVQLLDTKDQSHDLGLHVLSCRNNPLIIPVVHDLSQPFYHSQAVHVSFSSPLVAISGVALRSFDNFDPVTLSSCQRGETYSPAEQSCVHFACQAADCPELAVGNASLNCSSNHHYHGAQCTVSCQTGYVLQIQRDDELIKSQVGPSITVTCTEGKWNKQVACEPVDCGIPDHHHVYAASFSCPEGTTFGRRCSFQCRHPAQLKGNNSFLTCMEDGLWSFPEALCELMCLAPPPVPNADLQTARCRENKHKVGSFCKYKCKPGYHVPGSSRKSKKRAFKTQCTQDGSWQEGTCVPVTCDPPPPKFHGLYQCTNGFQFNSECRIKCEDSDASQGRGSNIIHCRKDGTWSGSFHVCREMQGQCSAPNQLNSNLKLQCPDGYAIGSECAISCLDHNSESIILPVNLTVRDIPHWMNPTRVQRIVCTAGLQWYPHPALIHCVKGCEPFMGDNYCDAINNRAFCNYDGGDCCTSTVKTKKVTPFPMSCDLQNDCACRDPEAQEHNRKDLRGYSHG
T2 sequence (A0A2K5WE98 entry or part of it): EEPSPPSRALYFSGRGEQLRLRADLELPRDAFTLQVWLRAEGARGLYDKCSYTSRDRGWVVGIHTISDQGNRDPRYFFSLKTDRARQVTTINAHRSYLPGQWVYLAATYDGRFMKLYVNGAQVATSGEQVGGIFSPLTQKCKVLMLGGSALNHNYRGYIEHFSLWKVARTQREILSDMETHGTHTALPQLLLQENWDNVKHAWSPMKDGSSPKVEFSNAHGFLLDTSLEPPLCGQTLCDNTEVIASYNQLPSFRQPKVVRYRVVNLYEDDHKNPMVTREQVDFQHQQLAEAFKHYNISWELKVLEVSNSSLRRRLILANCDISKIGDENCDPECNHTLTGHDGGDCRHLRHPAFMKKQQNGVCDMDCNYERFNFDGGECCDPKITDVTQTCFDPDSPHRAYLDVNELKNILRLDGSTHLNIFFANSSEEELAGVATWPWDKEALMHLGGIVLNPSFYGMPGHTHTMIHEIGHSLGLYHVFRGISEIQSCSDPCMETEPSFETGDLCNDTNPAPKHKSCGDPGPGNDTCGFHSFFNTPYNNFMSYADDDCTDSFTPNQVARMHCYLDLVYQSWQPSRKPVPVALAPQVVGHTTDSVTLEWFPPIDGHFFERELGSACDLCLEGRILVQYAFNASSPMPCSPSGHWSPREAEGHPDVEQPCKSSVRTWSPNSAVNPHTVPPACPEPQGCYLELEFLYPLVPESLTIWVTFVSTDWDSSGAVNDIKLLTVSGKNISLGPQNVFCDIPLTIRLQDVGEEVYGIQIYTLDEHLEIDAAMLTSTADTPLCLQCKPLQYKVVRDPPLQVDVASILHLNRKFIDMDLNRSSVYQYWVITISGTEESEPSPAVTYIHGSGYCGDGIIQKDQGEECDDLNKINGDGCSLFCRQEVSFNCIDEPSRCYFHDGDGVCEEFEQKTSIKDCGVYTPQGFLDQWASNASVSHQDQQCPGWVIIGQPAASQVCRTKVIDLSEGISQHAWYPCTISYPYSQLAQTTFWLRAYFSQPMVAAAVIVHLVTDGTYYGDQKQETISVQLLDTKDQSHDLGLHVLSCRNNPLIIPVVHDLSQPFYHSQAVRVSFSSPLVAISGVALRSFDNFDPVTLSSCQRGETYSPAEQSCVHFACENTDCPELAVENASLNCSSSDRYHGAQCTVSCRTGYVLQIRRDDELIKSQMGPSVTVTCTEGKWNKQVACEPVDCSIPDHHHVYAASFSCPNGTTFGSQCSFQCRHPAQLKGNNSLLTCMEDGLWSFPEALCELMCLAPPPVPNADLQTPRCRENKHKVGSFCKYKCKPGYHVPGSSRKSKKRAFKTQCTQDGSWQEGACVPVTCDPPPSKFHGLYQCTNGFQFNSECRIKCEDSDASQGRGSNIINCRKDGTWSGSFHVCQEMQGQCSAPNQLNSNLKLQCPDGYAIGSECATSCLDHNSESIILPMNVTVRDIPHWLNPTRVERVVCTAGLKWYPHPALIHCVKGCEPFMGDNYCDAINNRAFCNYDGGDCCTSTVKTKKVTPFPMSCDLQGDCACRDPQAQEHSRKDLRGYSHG

B3: TPP-12744 (antibody, human IgG1, kappa, V domains shown)
VH: QVQLVQSGAEVKKPGASVKVSCKASGYTFTSYAMHWVRQAPGQRLEWMGWMNAGTGATKSSQKFQGRVTITRDTSASTAYMELSSLRSEDTAVYYCARGPSMETPTTFGMDVWGQGTTVTVSS
VL: DIQMTQSPSSVSASVGDRVTITCRASQGISRWLAWYQQKPGKAPKLLIYAASSLQSGVPSRFSGSGSGTDFTLTISSLQPEDFATYYCQQENAYPFTFGGGTKVEIKR
notes: human IgG1/kappa, Fc-disabled (L235A, G237A)
PAPP-A cleavage of IGFBP-5 Mean pIC50 [1]: 10.7 pIC50
Kd [6]: 0.161 nM
koff [6]: 0.000433 s⁻¹
kon [6]: 2.68e+06 M⁻¹ s⁻¹
Kd [7]: 0.21 nM
koff [7]: 0.000393 s⁻¹
kon [7]: 1.87e+06 M⁻¹ s⁻¹
Kd [8]: 0.127 nM
koff [8]: 0.000319 s⁻¹
kon [8]: 2.51e+06 M⁻¹ s⁻¹
PAPP-A cleavage of IGFBP-4 Mean pIC50 [2]: 10 pIC50
binding result (recombinant mouse PAPPA [9]): no binding
binding result (rat PAPPA): no binding
IC50, PAPPA-mediated cleavage of human IGFBP2, cell-free, Western blot [10]: 1.39 nM
EC50, increase of intact IGFBP4 in A549 cell supernatant (ELISA) [11]: 0.8 nM
EC50, increase of intact IGFBP4 in ADPKD patient derived cystic 9-7 cells (ELISA) [11]: 0.4 nM
IC50, decrease of IGFBP4-Ct fragments in 9-7 cells (ELISA) [11]: 0.02 nM
IC50, decrease of IGFBP4-Ct fragments in A549 cell supernatant (ELISA) [11]: 0.8 nM
IC50, decrease of free-IGF-1 in A549 cell supernatant (ELISA) [11]: 0.03 nM
pEC50, increase of intact IGFBP4 in 9-7 cells (ELISA) [11]: 9.41 pEC50
pEC50, increase of intact IGFBP4 in A549 cell supernatant (ELISA) [11]: 9.09 pEC50
pIC50, decrease of IGFBP4-Ct fragments in 9-7 cells (ELISA) [11]: 10.6 pIC50
pIC50, decrease of IGFBP4-Ct fragments in A549 cell supernatant (ELISA) [11]: 9.07 pIC50
pIC50, decrease of free-IGF-1 in A549 cell supernatant (ELISA) [11]: 10.5 pIC50
rec. Cyno PAPP-A IGFBP4 pIC50 (G-401 pAKT assay) [3]: 9.56 pIC50
rec. Human PAPP-A IGFBP4 pIC50 (G-401 pAKT assay) [4]: 9.46 pIC50
rec. Human PAPP-A IGFBP5 pIC50 (G-401 pAKT assay) [4]: 9.81 pIC50
A549 cells endogenous human PAPP-A pIC50 (A549 pAKT assay) [5]: 9.49 pIC50
EC50 (read off the curve) [12]: ~1 nM

B4: TPP-12801 (antibody, human IgG1, kappa, V domains shown)
VH: QLQLQESGPGLVKPSETLSLTCTVSGGSISSSDYYWGWIRQPPGKGLEWIGSIFYSGSTYYNPSLKSRVTISVDTSKNQFSLKLSSVTAADTAVYYCARATTSSSADYWGQGTLVTVSS
VL: DIQMTQSPSSVSASVGDRVTITCRASQGVSRWLAWYQQKPGKAPKLLIYAASSLQSGVPSRFSGSGSGTDFTLTISSLQPEDFATYYCQQGNVPPLTFGGGTKVEIKR
PAPP-A cleavage of IGFBP-5 Mean pIC50 [1]: 9.1 pIC50
PAPP-A cleavage of IGFBP-4 Mean pIC50 [2]: 8.96 pIC50
rec. Cyno PAPP-A IGFBP4 pIC50 (G-401 pAKT assay) [3]: 9.76 pIC50
rec. Human PAPP-A IGFBP4 pIC50 (G-401 pAKT assay) [4]: 9.22 pIC50
rec. Human PAPP-A IGFBP5 pIC50 (G-401 pAKT assay) [4]: 9.05 pIC50
A549 cells endogenous human PAPP-A pIC50 (A549 pAKT assay) [5]: 9.33 pIC50

B5: TPP-12792 (antibody, human IgG1, kappa, V domains shown)
VH: QLQLQESGPGLVKPSETLSLTCTVSGGSISSSDYYWGWIRQPPGKGLEWIGSIFYSGSTYYNPSLKSRVTISVDTSKNQFSLKLSSVTAADTAVYYCARATTSSSADYWGQGTLVTVSS
VL: DIQMTQSPSSVSASVGDRVTITCRASQGISRWLAWYQQKPGKAPKLLIYAASSVQSGVPSRFSGSGSGTDFTLTISSLQPEDFATYYCQQGNVPPLTFGGGTKVEIKR
PAPP-A cleavage of IGFBP-5 Mean pIC50 [1]: 9.78 pIC50
PAPP-A cleavage of IGFBP-4 Mean pIC50 [2]: 9.53 pIC50
rec. Cyno PAPP-A IGFBP4 pIC50 (G-401 pAKT assay) [3]: 9.23 pIC50
rec. Human PAPP-A IGFBP4 pIC50 (G-401 pAKT assay) [4]: 9.18 pIC50
rec. Human PAPP-A IGFBP5 pIC50 (G-401 pAKT assay) [4]: 9.35 pIC50
A549 cells endogenous human PAPP-A pIC50 (A549 pAKT assay) [5]: 8.92 pIC50

B6: TPP-12681 (antibody, human IgG1, kappa, V domains shown)
VH: EVQLVQSGAEVKKPGESLKISCKGSGYSFTSYWTGWVRQAPGKGLEWMGIIYPGGSVARYSPSFQGQVTISADKSISTAYLQWSSLKASDTAVYYCARGPLRSDYPDVWGQGTMVTVSS
VL: EIVMTQSPATLSVSPGERATLSCRASQSVGSYLAWYQQKPGQAPRLLIYRGSTRATGIPARFSGSGSGTEFTLTISSLQSEDFAVYYCQQPYVWPITFGGGTKVEIKR
PAPP-A cleavage of IGFBP-4 Mean pIC50 [2]: 10.1 pIC50
rec. Cyno PAPP-A IGFBP4 pIC50 (G-401 pAKT assay) [3]: 9.46 pIC50
rec. Human PAPP-A IGFBP4 pIC50 (G-401 pAKT assay) [4]: 9.57 pIC50
rec. Human PAPP-A IGFBP5 pIC50 (G-401 pAKT assay) [4]: 9.68 pIC50
rec. Mouse PAPP-A IGFBP4 pIC50 (G-401 pAKT assay) (recombinant mouse PAPPA [13]): 9.51 pIC50
A549 cells endogenous human PAPP-A pIC50 (A549 pAKT assay) [5]: 9.7 pIC50
EC50 (read off the curve) [12]: ~0.1 nM

B8: TPP-12683 (antibody, human IgG1, kappa, V domains shown)
VH: QLQLQESGPGLVKPSETLSLTCTVSGGSISSSSYNWGWIRQPPGKGLEWIGSISSSGSTYFNPSLKSRVTISVDTSKNQFSLKLSSVTAADTAVYYCARSGYRPSFYAMDAWGQGTTVTVSS
VL: DIQLTQSPSSVSASVGDRVTITCRASQDISYWLAWYQQKPGKAPKLLIYAASSLQSGVPSRFSGSGSGTDFTLTISSLQPEDFATYYCQQAYLLHTFGGGTKVEIKR
PAPP-A cleavage of IGFBP-5 Mean pIC50 [1]: 8.69 pIC50
PAPP-A cleavage of IGFBP-4 Mean pIC50 [2]: 8.8 pIC50
rec. Cyno PAPP-A IGFBP4 pIC50 (G-401 pAKT assay) [3]: 8.48 pIC50
rec. Human PAPP-A IGFBP4 pIC50 (G-401 pAKT assay) [4]: 8.84 pIC50
rec. Human PAPP-A IGFBP5 pIC50 (G-401 pAKT assay) [4]: 8.81 pIC50
rec. Mouse PAPP-A IGFBP4 pIC50 (G-401 pAKT assay) (recombinant mouse PAPPA [13]): 8.88 pIC50
A549 cells endogenous human PAPP-A pIC50 (A549 pAKT assay) [5]: 8.44 pIC50

More lines, now with the values ahead:

PAPP-A cleavage of IGFBP-5 Mean pIC50 [1]: 10.4 pIC50
PAPP-A cleavage of IGFBP-4 Mean pIC50 [2]: 10 pIC50
rec. Cyno PAPP-A IGFBP4 pIC50 (G-401 pAKT assay) [3]: 10 pIC50
rec. Human PAPP-A IGFBP4 pIC50 (G-401 pAKT assay) [4]: 9.36 pIC50
rec. Human PAPP-A IGFBP5 pIC50 (G-401 pAKT assay) [4]: 9.66 pIC50
A549 cells endogenous human PAPP-A pIC50 (A549 pAKT assay) [5]: 9.76 pIC50
B1: TPP-12743 (antibody, human IgG1, kappa, V domains shown)
VH: QVQLVQSGAEVKKPGASVKVSCKASGYTFTSYAMHWVRQAPGQRLEWMGWMNAGTGATKSSQKFQGRVTITRDTSASTAYMELSSLRSEDTAVYYCARGPSLETPTTFGMDVWGQGTTVTVSS
VL: DIQMTQSPSSVSASVGDRVTITCRASQGISRWLAWYQQKPGKAPKLLIYAASSLQSGVPSRFSGSGSGTDFTLTISSLQPEDFATYYCQQENAYPFTFGGGTKVEIKR

PAPP-A cleavage of IGFBP-5 Mean pIC50 [1]: 11.1 pIC50
PAPP-A cleavage of IGFBP-4 Mean pIC50 [2]: 10.2 pIC50
rec. Cyno PAPP-A IGFBP4 pIC50 (G-401 pAKT assay) [3]: 9.7 pIC50
rec. Human PAPP-A IGFBP4 pIC50 (G-401 pAKT assay) [4]: 9.59 pIC50
rec. Human PAPP-A IGFBP5 pIC50 (G-401 pAKT assay) [4]: 9.92 pIC50
A549 cells endogenous human PAPP-A pIC50 (A549 pAKT assay) [5]: 9.86 pIC50
B2: TPP-12708 (antibody, human IgG1, kappa, V domains shown)
VH: QVQLVQSGAEVKKPGASVKVSCKASGYTFTSYAMHWVRQAPGQRLEWMGWINAGTGATKYARKFQGRVTITRDTSASTAYMELSSLRSEDTAVYYCARGPSMETPTTYGMEVWGQGTTVTVSS
VL: DIQMTQSPSSVSASVGDRVTITCRASQGISRWLAWYQQKPGKAPKLLIYSTSSLQLGVPSRFSGSGSGTDFTLTISSLQPEDFATYYCQQENDYPFTFGGGTKVEIKR

PAPP-A cleavage of IGFBP-5 Mean pIC50 [1]: 9.1 pIC50
PAPP-A cleavage of IGFBP-4 Mean pIC50 [2]: 10.5 pIC50
rec. Cyno PAPP-A IGFBP4 pIC50 (G-401 pAKT assay) [3]: 9.85 pIC50
rec. Human PAPP-A IGFBP4 pIC50 (G-401 pAKT assay) [4]: 9.45 pIC50
rec. Human PAPP-A IGFBP5 pIC50 (G-401 pAKT assay) [4]: 9.04 pIC50
rec. Mouse PAPP-A IGFBP4 pIC50 (G-401 pAKT assay) (recombinant mouse PAPPA [13]): 9.28 pIC50
A549 cells endogenous human PAPP-A pIC50 (A549 pAKT assay) [5]: 9.5 pIC50
B7: TPP-12821 (antibody, human IgG1, kappa, V domains shown)
VH: EVQLVQSGAEVKKPGESLKISCKGSGYSFTSDWIGWVRQAPGKGLEWMGIIYPGGSDTRYSPSFRGQVTISADKSISTAYLQWSSLKASDTAVYYCARGPLRSDYVDVWGQGTMVTVSS
VL: EIVMTQSPATLSVSPGERATLSCRASQSVGSNLAWYQQKPGQAPRLLIYRASTRATGIPARFSGSGSGTEFTLTISSLQSEDFAVYYCQQPYVWPITFGGGTKVEIKR
